From patent publication US7595158B2, “Bcl2L12 polypeptide activators and inhibitors” (Dana-Farber Cancer Institute, Inc., priority 2003, dated 2009)

Columns and labels:
[1] = system: Ink4a/Arf deficient astrocytes; assay: Colony formation of Ink4a/Arf deficient astrocytes after gamma-irradiation; format: cell-based, mouse; conditions: γ-irradiated 5 Gy, ten days, 1000 cells/10 cm dish; vector only about 17
Procedure: The ability of Bcl2L12 polypeptide to promote colony formation was assessed. Briefly, 1000 cells were seeded in a 10 cm dish and γ-irradiated (5 Gy). After culturing the irradiated cells for ten days, the cells were stained with crystal violet, and the number of colonies was counted. Bcl2L12-V5 polypeptide expression promoted colony formation in Ink4a/Arf deficient astrocytes upon γ-irradiation (about 27 colonies for cells expressing Bcl2L12-V5 polypeptides compared to about 17 colonies for control vector only cells; 1000 cells/10 cm dish).

[2] = system: Ink4a/Arf deficient embryonic fibroblasts; assay: Colony formation of Ink4a/Arf deficient embryonic fibroblasts; format: cell-based; conditions: about 300 cells per 6 well plate; vector only about 13
Procedure: In addition, Ink4a/Arf deficient embryonic fibroblasts were transfected with vector only or a vector encoding a Bcl2L12 polypeptide or Bcl2 polypeptide. Once the cells were transfected, the number of colonies formed in cultures (about 300 cells per 6 well plate) was determined. Expression of Bcl2L12 polypeptide promoted growth of Ink4a/Arf deficient embryonic fibroblasts. […] In a similar experiment, Ink4a/Arf deficient embryonic fibroblasts were co-transfected with a vector encoding H-RasV12 and either a vector only, vector encoding Bcl2L12 polypeptide, or a vector encoding Bcl2 polypeptide. Once the cells were transfected, the number of foci formed per transfection was determined. Expression of Bcl2L12 polypeptide or Bcl2 polypeptide in combination with H-RasV12 expression promoted growth of Ink4a/Arf deficient embryonic fibroblasts (about 1.5 to 2 fold more foci per transfection for cells expressing Bcl2L12 polypeptide or Bcl2 polypeptide compared to control pBabe cells).

[3] = system: Ink4a/Arf deficient astrocytic cell cultures; assay: Nuclear swelling (Nicoletti method) in Ink4a/Arf deficient astrocytes; format: cell-based, mouse; conditions: STS 500 nM 24 hours; vector only about 42 percent
Procedure: To quantify nuclear swelling in Ink4a/Arf deficient astrocytic cell cultures, cells transfected with vector only or a vector encoding a Bcl2L12-V5 polypeptide were treated with or without STS (500 nM) for 24 hours, lysed, and stained with Propidium Iodide (Nicoletti method). Nuclei with increased forward scatter (i.e., increased size) were defined as swollen, and the number of those nuclei relatively to the total number of nuclei was expressed as the percent swelling.

BJAB and SKW6.4 cells = assay: Apoptosis of lymphoid cells stimulated with anti-CD95 or STS (FACS scatter); format: cell-based; conditions: anti-CD95 or STS 24 hours, GFP positive cells
Procedure: In addition, BJAB and SKW6.4 cells were co-transfected (1:3 ratio) with a vector encoding GFP and either an empty vector control or a vector encoding Bcl2L12-V5. After 24 hours, the transfected cells were stimulated with anti-CD95 or STS for 24 hours at different concentrations. The cells were analyzed by FACS. A gate was set only on GFP positive cells. Apoptosis was defined as an increase in sideward scatter and a decrease in forward scatter. SKW6.4 cells are type I B cells, while BJAB cells are type II B cells.

astrocytes = assay: Mitochondrial membrane potential (JC-1, FACS) in STS-treated astrocytes; format: cell-based
Text: Like nuclear swelling and plasma membrane integration, a loss of the mitochondrial membrane potential is a hallmark of […]. To determine the dissipation of ΔΨM, STS treated astrocytes transfected with either vector only (pBabe) or a vector encoding a Bcl2L12-V5 polypeptide were stained with JC-1, and cells with an increase in fluorescence (FL-1) were quantified using FACS analysis. JC-1 (5,5′,6,6′-tetrachloro-1,1′,3,3′-tetraethylbenzimidazolylcarbocyanine iodide) is a green-fluorescent probe that exists as a monomer at low concentrations or at low membrane potential. […] Thus, the emission of this cyanine dye can be used as a sensitive measure of mitochondrial membrane potential.

[4] = system: Ink4a-/-/Arf-/- astrocytes; assay: Growth of transduced Ink4a-/-/Arf-/- astrocytes under normal and low-serum conditions; format: cell-based, mouse
Text: The Bcl2L12-V5, R-RAS, and IRF3 nucleic acid sequences were cloned into expression vectors. Controls included expression vectors containing EGFR or Bcl2 nucleic acid sequences. The encoded polypeptides were expressed in primary astrocytes and tested for cell growth, transformation, and apoptosis activities. Primary astrocytes deficient for Ink4a/Arf (e.g., Ink4a^−/−/Arf^−/− astrocytes) were used given the prominence of this tumor suppressor lesion in advanced human gliomas. The following was performed to assess growth characteristics under normal growth conditions. Mouse Ink4a^−/−/Arf^−/− astrocytes were retro-virally transduced with pBabe vector alone; Bcl2L12-V5 nucleic acid; R-RAS nucleic acid; IRF3 nucleic acid; EGFR* nucleic acid; or Bcl2 nucleic acid. After retro-viral infection, transduced mouse Ink4a^−/−/Arf^−/− astrocytes were subjected to puromycin (2 μg/mL) selection for four days and plated at a density of 1×10^5 cells/10 cm dish using 10% FBS-DMEM medium. All transduced Ink4a^−/−/Arf^−/− astrocytes were counted each day for five days to determine cell numbers (mean±S.D.; three independent experiments with each being performed in triplicate).
The following was performed to assess growth characteristics under low-serum growth conditions. Retro-virally transduced mouse Ink4a^−/−/Arf^−/− astrocytes (1×10^6 cells/10 cm dish) were allowed to attach onto plates in 10% FBS-DMEM medium for five hours. After five hours, the medium was changed to 0.1% FBS-DMEM, and the cells were allowed to grow for three days. After three days in 0.1% FBS, the cells were counted to determine cell numbers (mean±S.D.; three independent experiments with each being performed in triplicate). The number of Ink4a^−/−/Arf^−/− astrocytes infected with pBabe-vector was set to 1.0.

caspases 3 and 7 = assay: Western blot of procaspase maturation in STS-treated Ink4a/Arf deficient astrocytes; format: cell-based, mouse; conditions: STS 1 μM, 0-16 hours
Procedure: In another experiment, Ink4a/Arf deficient astrocytic cell cultures ectopically expressing the Bcl2L12-V5 polypeptide or containing pBabe were treated with STS (1 μM) for 0, 2, 4, 8, or 16 hours. Cell lysates were analyzed by Western blotting using anti-caspase-9 antibodies (1:1000; Cell Signaling), anti-caspase-7 antibodies (0.5 μg/ml; BD Pharmingen), anti-caspase-3 antibodies (0.25 μg/ml; BD Transduction Laboratories), anti-cleaved caspase-9 antibodies (1:1000; Cell Signaling), anti-cleaved capase-7 antibodies (1:1000; Calbiochem), and anti-cleaved caspase-3 antibodies (1:1000; Calbiochem).

[5] = system: p53 mediated transcription; assay: p53 luciferase reporter (PG13) in Ink4a/Arf deficient astrocytes; format: cell-based; conditions: normalized to βGal, vs vector control
Text: Activation of the p53 transcription factor in response to a variety of cellular stresses, including DNA damage and oncogene activation, initiates a program of gene expression that blocks the proliferative expansion of damaged cells. To asses the effect of Bcl2L12 polypeptides on p53 mediated transcription, Ink4a/Arf deficient astrocytes ectopically expressing a Bcl2L12-V5 polypeptide were transfected with increasing amounts of nucleic acid encoding a p53 polypeptide and a luciferase construct bearing a dimerized p53 binding site in its promoter (PG13).

B1: Bcl2L12-V5: Bcl2L12 polypeptide having the V5 epitope tag, ectopically expressed from pBabe-Bcl2L12-V5 vector; human amino acid sequence 1-334 (protein)
chain: MGRPAGLFPPLCPFLGFRPEACWERHMQIERAPSVPPFLRWAGYRPGPVRRRGKVELIKFVRVQWRRPQVEWRRRRWGPGPGASMAGSEELGLREDTLRVLAAFLRRGEAAGSPVPTPPRSPAQEEPTDFLSRLRRCLPCSLGRGAAPSESPRPCSLPIRPCYGLEPGPATPDFYALVAQRLEQLVQEQLKSPPSPELQGPPSTEKEAILRRLVALLEEEAEVINQKLASDPALRSKLVRLSSDSFARLVELFCSRDDSSRPSRACPGPPPPSPEPLARLALAMELSRRVAGLGGTLAGLSVEHVHSFTPWIQAHGGWEGILAVSPVDLNLPLD
modifications: left off: small tags and cut ends
number of colonies [1]: about 27 colonies | number of colonies [2]: about 26 colonies | swelling (nuclei) [3]: about 67% | apoptosis (BJAB and SKW6.4 cells): promoted apoptosis | dissipated mitochondrial membrane potential (astrocytes): marked increase in the dissipated membrane potential | resistance to growth inhibition by low serum culture ([4]; 0.1% FBS, three days, vs pBabe): significantly resistant to growth inhibition | growth / proliferation under normal growth conditions ([4]; over-expression, 10% FBS, vs vector only): significant increase in growth | maturation of effector caspases (caspases 3 and 7): significant reduction of the maturation of effector caspases 3 and 7 | transcriptional activity of p53 (reporter activity) [5]: marked decrease of transcriptional activity
